Data on 1 molecule can be found in patent US20220411487A1.

The assay addresses catalytically inactive full length human TMPRSS6 on HEK293 cells (HEK293/hTMPRSS6 (S762A)) (human) (UniProt Q8IU80). Put plainly: flow cytometry, HEK293 cells expressing target.

catalytically inactive full length human TMPRSS6 on HEK293 cells (HEK293/hTMPRSS6 (S762A)) (human), sequence (Q8IU80 10-811 S762A): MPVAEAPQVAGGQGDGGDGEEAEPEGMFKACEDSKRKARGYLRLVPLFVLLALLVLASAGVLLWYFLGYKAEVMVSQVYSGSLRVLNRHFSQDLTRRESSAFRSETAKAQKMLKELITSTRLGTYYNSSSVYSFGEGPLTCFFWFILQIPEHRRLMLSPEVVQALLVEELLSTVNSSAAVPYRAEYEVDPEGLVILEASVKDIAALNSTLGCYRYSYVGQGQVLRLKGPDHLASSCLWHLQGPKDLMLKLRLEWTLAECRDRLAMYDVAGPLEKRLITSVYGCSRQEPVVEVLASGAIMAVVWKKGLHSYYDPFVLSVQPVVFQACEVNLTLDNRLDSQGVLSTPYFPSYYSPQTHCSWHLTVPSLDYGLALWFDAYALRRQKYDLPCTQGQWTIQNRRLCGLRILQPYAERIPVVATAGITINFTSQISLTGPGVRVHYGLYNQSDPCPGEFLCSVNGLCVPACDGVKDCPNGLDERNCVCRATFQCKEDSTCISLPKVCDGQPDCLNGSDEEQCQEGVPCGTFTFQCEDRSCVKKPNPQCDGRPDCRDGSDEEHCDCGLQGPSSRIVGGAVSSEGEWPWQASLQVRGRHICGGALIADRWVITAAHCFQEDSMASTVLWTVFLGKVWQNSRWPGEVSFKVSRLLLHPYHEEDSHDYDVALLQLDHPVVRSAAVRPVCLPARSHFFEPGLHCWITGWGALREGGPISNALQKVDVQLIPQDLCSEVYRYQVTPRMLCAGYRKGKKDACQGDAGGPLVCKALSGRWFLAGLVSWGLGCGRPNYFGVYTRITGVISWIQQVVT

B1: REGN8023 (antibody, human IgG4 S228P, kappa, V domains shown)
VH: EVQLVESGGGLVKPGGSLRISCAASGFIFVDYAMHWVRQAPGKGLEWVSGISWNSGSIGYADSVKGRFTISRDNAKKSLYLQMSGLRPEDTALYYCVKSGFYYVRSYFDNWGQGTLVTVSS
VL: DIVMTQSPLSLPVTPGEPASISCRSSQSLLDSDDGNTYLDWYLRKPGQSPQLLIYTLSYRASGVPDRFSGSGSGTDFTLKISRVEADDVGVYYCMQRIEFPLTFGGGTKVEIKR
For B1, the EC50 (as a rule, the concentration needed to bring the measured effect to its halfway point) came out at 2 nM and the Max. Fold Binding (fold over unstained control) is 300.
